Reference: publication doi:10.1101/2021.01.14.426695

Experiments:
[1] = target: S-R (SARS-CoV-2 S protein trimer, furin site deleted to a single arginine) (SARS-CoV-2); test: negative stain EM
[2] = target: S-R/PP (SARS-CoV-2 S protein trimer, furin site deleted to a single arginine, two stabilizing prolines) (SARS-CoV-2); test: negative stain EM

| Substance | stoichiometry N [1] | stoichiometry N [2] |
| --- | --- | --- |
| S-R (SARS-CoV-2 S protein trimer, furin site deleted to a single arginine) | 3 |  |
| S-R/PP (SARS-CoV-2 S protein trimer, furin site deleted to a single arginine, two stabilizing prolines) |  | 3 |
